Drawing on US20230060040A1, “USE OF TRANSFERRIN, TRANSFERRIN RECEPTOR AND ANTIBODY THEREOF IN PREPARATION OF ANTI-SARS-CoV-2 DRUG” (KUNMING INSTITUTE OF ZOOLOGY, CHINESE ACADEMY OF SCIENCES, priority 2020, published 2023), this text covers EC50 of inhibition of SARS-CoV-2 infection of Vero E6 cells, calculated by CPE for one substance.

The assay concerns the target transferrin receptor on the membrane surface of Vero E6 cells (African green monkey). Kind of assay: cell-based or functional assay.

With “transferrin (Sigma, catalog number T4382) (from UniProt P02787 20-698) (ligand)”, the EC50 of inhibition of SARS-CoV-2 infection of Vero E6 cells, calculated by CPE is 125 nM.
